Broadly, the Kd is the free concentration of one partner at which half of the binding sites on the other are occupied at equilibrium, for simple one-to-one binding.

This note sets out measurements from PMC7579878, “Unannotated single nucleotide polymorphisms in the TATA box of erythropoiesis genes show in vitro positive involvements in cognitive and mental disorders”.

The data set has as its target TATA-binding protein (hTBP) (Homo sapiens, UniProt P20226 1-339). Nature of the data set: EMSA (kinetic, kd/ka); EMSA with 32P-labelled 26 bp duplexes; binding buffer, salt, pH and temperature not given in the material. The conditions noted are these: protein: recombinant; label: 32P (both strands); blunt. (In general: Mobility shift assays separate free from complexed probe on a gel.)

TATA-binding protein (hTBP), sequence (P20226 whole entry): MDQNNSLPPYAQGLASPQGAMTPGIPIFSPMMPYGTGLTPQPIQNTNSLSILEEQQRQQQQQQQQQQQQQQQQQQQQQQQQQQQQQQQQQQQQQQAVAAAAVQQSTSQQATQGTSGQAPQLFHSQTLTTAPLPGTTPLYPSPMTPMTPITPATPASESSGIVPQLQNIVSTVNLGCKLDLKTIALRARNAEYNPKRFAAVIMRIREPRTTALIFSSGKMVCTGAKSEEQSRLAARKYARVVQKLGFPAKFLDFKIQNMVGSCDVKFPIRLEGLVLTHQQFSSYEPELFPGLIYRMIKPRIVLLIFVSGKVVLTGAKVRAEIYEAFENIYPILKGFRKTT

B1: EPOR rs971717705:G (-29A>G, ODN 7) (dsDNA)
DNA 1: CACGTCATCTGTTTTTGTCTGCTACG
DNA 2: CGTAGCAGACAAAAACAGATGACGTG
As for B1, the Kd stood at 150 ± 30 nM.

B2: EPOR rs567946217:G (-31C>G, ODN 9) (dsDNA)
DNA 1: CACGTCATGTATTTTTGTCTGCTACG
DNA 2: CGTAGCAGACAAAAATACATGACGTG
Consider B2, for which the Kd came out at 80 ± 10 nM.

B3: EPOR rs1006576690:A (-27T>A, ODN 6) (dsDNA)
DNA 1: CACGTCATCTATATTTGTCTGCTACG
DNA 2: CGTAGCAGACAAATATAGATGACGTG
Turning to B3, the Kd amounted to 11 ± 3 nM.

B4: EPOR TATA-like WT (ODN 5) (dsDNA)
DNA 1: CACGTCATCTATTTTTGTCTGCTACG
DNA 2: CGTAGCAGACAAAAATAGATGACGTG
For the molecule B4, the Kd stood at 170 ± 30 nM.

B5: HBZ rs113180943:A (-29T>A, ODN 4) (dsDNA)
DNA 1: AGCTCCCTGTAAATAAGGGGACCCTG
DNA 2: CAGGGTCCCCTTATTTACAGGGAGCT
For the molecule B5, the Kd came out at 40 ± 20 nM.

B6: HBB TATA WT (ODN 1, -32C) (dsDNA)
DNA 1: AGGGCTGGGCATAAAAGTCAGGGCAG
DNA 2: CTGCCCTGACTTTTATGCCCAGCCCT
B6: the Kd is 50 nM.

B7: HBZ TATA WT (ODN 3) (dsDNA)
DNA 1: AGCTCCCTGTATATAAGGGGACCCTG
DNA 2: CAGGGTCCCCTTATATACAGGGAGCT
As to B7, the Kd was determined as 6 nM.

B8: HBB rs34500389:T (-32C>T, ODN 2) (dsDNA)
DNA 1: AGGGCTGGGTATAAAAGTCAGGGCAG
DNA 2: CTGCCCTGACTTTTATACCCAGCCCT
Consider B8, for which the Kd came to 32 ± 3 nM.
